Measurements as given in patent publication US12215133.

Biological target: T1, GIP receptor
T1 sequence (P48546 whole entry, species assumed, looked up): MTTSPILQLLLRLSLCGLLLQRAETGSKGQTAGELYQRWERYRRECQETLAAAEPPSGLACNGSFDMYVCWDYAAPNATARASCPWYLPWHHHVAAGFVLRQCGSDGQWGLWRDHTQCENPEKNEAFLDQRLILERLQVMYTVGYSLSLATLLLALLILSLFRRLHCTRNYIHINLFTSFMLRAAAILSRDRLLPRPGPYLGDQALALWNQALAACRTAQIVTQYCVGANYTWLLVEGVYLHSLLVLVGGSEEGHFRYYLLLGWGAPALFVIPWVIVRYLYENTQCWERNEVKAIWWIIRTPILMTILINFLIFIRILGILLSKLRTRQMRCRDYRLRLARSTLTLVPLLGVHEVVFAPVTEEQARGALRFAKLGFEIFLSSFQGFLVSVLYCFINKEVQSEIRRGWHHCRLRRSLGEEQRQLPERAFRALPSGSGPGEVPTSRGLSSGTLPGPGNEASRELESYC
Assay: cell-based or functional assay

Row | Substance | cAMP experimental result of GIP receptor, EC50 [nM]
1 | BGM134 (Semaglutide) (peptide) | > 50
2 | BG121 (LY3298176) (peptide) | 1.79
